From the supplement of paper PMC9112550, “Optimization of the antimicrobial peptide Bac7 by deep mutational scanning” (BMC Biology, 2022)

test system: Escherichia coli TOP10; assay: shrunken log2 fold change of peptide-encoding DNA abundance (4.5 h post-induction vs induction); higher = less antimicrobial activity (less host growth inhibition); details: time post-induction: 4.5 h; library: site-saturation at positions 5, 18, 19, 20
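Further: peptides expressed intracellularly from a pBAD plasmid library in pooled LB shake-flask culture, induced with 0.3% L-arabinose, DNA abundance read by NGS, three biological replicates, DESeq2 with apeglm shrinkage.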

Row | Sequence | shrunken log2 fold change
1 | RRIRWRPPRLPRPRPRPFCGPRP | 0.437
2 | RRIRERPPRLPRPRPRPYPGPRP | -0.379
3 | RRIRPRPPRLPRPRPRPGRPPRP | 0.155
4 | RRIRCRPPRLPRPRPRPVKDPRP | -0.305
5 | RRIRSRPPRLPRPRPRPCPQPRP | 0.0538
6 | RRIRMRPPRLPRPRPRPREIPRP | 1.35
7 | RRIRTRPPRLPRPRPRPENLPRP | -0.0254
8 | RRIRRRPPRLPRPRPRPCLEPRP | 0.11
9 | RRIRSRPPRLPRPRPRPRCEPRP | 0.152
10 | RRIRDRPPRLPRPRPRPQVLPRP | -0.178
11 | RRIRSRPPRLPRPRPRPLAQPRP | 0.261
12 | RRIRTRPPRLPRPRPRPYFVPRP | -0.258
13 | RRIRIRPPRLPRPRPRPDPGPRP | -0.0404
14 | RRIRMRPPRLPRPRPRPRAFPRP | 0.918
15 | RRIRLRPPRLPRPRPRPTDFPRP | -0.0399
16 | RRIRLRPPRLPRPRPRPEDRPRP | -0.0181
17 | RRIRLRPPRLPRPRPRPYKMPRP | -0.851
18 | RRIRYRPPRLPRPRPRPLNEPRP | -0.0438
19 | RRIRWRPPRLPRPRPRPCVFPRP | 0.309
20 | RRIRIRPPRLPRPRPRPCCTPRP | -0.482
21 | RRIRMRPPRLPRPRPRPCFTPRP | -0.123
22 | RRIRMRPPRLPRPRPRPPERPRP | 1.98
23 | RRIRKRPPRLPRPRPRPNCKPRP | 0.495
24 | RRIRERPPRLPRPRPRPCQHPRP | -0.0915
25 | RRIRHRPPRLPRPRPRPMAPPRP | 0.0599

Row | Sequence | shrunken log2 fold change
26 | RRIRERPPRLPRPRPRPKENPRP | -0.135
27 | RRIRKRPPRLPRPRPRPKWPPRP | -0.031
28 | RRIRERPPRLPRPRPRPPNGPRP | 0.203
29 | RRIRMRPPRLPRPRPRPAWKPRP | 0.14
30 | RRIRARPPRLPRPRPRPDRAPRP | 0.642
31 | RRIRGRPPRLPRPRPRPNVGPRP | 0.125
32 | RRIRNRPPRLPRPRPRPAPMPRP | 0.237
33 | RRIRQRPPRLPRPRPRPLDMPRP | 0.0532
34 | RRIRYRPPRLPRPRPRPPAKPRP | 0.441
35 | RRIRPRPPRLPRPRPRPTYSPRP | -0.104
36 | RRIRYRPPRLPRPRPRPFHTPRP | -0.128
37 | RRIRLRPPRLPRPRPRPNDIPRP | -0.723
38 | RRIRMRPPRLPRPRPRPATDPRP | 0.843
39 | RRIRIRPPRLPRPRPRPGIGPRP | 0.127
40 | RRIRIRPPRLPRPRPRPSGIPRP | -0.469
41 | RRIRLRPPRLPRPRPRPWHHPRP | -0.0279
42 | RRIRMRPPRLPRPRPRPHNVPRP | 0.0515
43 | RRIRQRPPRLPRPRPRPEKMPRP | -0.145
44 | RRIRFRPPRLPRPRPRPNENPRP | 0.00257
45 | RRIRSRPPRLPRPRPRPDMCPRP | 0.0552
46 | RRIRKRPPRLPRPRPRPNTGPRP | 0.382
47 | RRIRARPPRLPRPRPRPPFSPRP | 0.137
48 | RRIRTRPPRLPRPRPRPKFAPRP | 0.232
49 | RRIRWRPPRLPRPRPRPEAHPRP | 0.219
50 | RRIRLRPPRLPRPRPRPGQGPRP | -0.0179

Row | Sequence | shrunken log2 fold change
51 | RRIRWRPPRLPRPRPRPRYWPRP | 0.185
52 | RRIRPRPPRLPRPRPRPRRIPRP | 0.252
53 | RRIRWRPPRLPRPRPRPMQNPRP | 0.459
54 | RRIRHRPPRLPRPRPRPWQVPRP | -0.0402
55 | RRIRTRPPRLPRPRPRPPYWPRP | 0.0831
56 | RRIRARPPRLPRPRPRPQCMPRP | 0.153
57 | RRIRKRPPRLPRPRPRPMEQPRP | 0.033
58 | RRIRLRPPRLPRPRPRPWAPPRP | 1.18
59 | RRIRSRPPRLPRPRPRPCHMPRP | -0.233
60 | RRIRCRPPRLPRPRPRPITEPRP | -0.206
61 | RRIRARPPRLPRPRPRPCECPRP | 0.633
62 | RRIRLRPPRLPRPRPRPMCKPRP | 0.0258
63 | RRIRDRPPRLPRPRPRPGLQPRP | 0.56
64 | RRIRFRPPRLPRPRPRPPQNPRP | 0.536
65 | RRIRLRPPRLPRPRPRPITEPRP | 0.0241
66 | RRIRSRPPRLPRPRPRPNCHPRP | -0.316
67 | RRIRKRPPRLPRPRPRPGDMPRP | 0.277
68 | RRIRCRPPRLPRPRPRPLSAPRP | 0.00383
69 | RRIRRRPPRLPRPRPRPHMFPRP | 0.119
70 | RRIRFRPPRLPRPRPRPKMPPRP | -0.0572
71 | RRIRPRPPRLPRPRPRPEYGPRP | -0.167
72 | RRIRMRPPRLPRPRPRPFENPRP | 0.00631
73 | RRIRERPPRLPRPRPRPMHRPRP | -0.157
74 | RRIRWRPPRLPRPRPRPGRVPRP | 0.37
75 | RRIRIRPPRLPRPRPRPMALPRP | -0.581
